Source: patent US20180250395A1 (Janssen / Centocor, published 2018)
Numbering of substitutions follows the chain as printed.

B1: C47B213 (antibody, V domains shown)
VH: EVQLVQSGAEVKKPGESLKISCKGSGYSFDDSWIGWVRQMPGKGLEWMGIIYPGDSDTRYSPSFQGQVTISADKSISTAYLQWSSLKASDTAVYYCARVGRFASHQLDYWGQGTLVTVSS
VL: EIVLTQSPATLSLSPGERATLSCRASQSVNKALAWYQQKPGQAPRLLIYGASNRATGIPARFSGSGSGTDFTLTISSLEPEDFAVYYCQQGKGWPFTFGQGTKVEIK
notes: human IgG2sigma/kappa
B2: C47B233 (antibody, V domains shown)
VH: B1 VH with D30T, D31N, S32Y
VL: B1 VL with N30G, K31S, A32R, G50W, N53T, K92A, G93Y
notes: human IgG2sigma/kappa
B3: C47B237 (antibody, V domains shown)
VH: B1 VH with D30T, D31S, S32Y, V93M
VL: B1 VL with K31N, A32R, Y49H, G50W, N53T, T56I, K92A, G93S
notes: human IgG2sigma/kappa
B4: C47B232 (antibody, V domains shown)
VH: B1 VH with D30T, D31N, S32Y
VL: B1 VL with K31N, A32R, Y49H, G50W, N53T, T56I, K92A, G93S
notes: human IgG2sigma/kappa
B5: C47B243 (antibody, V domains shown)
VH: B1 VH with D30T, S32Y
VL: B1 VL with N30S, K31N, A32R, K92R, G93S
notes: human IgG2sigma/kappa
B6: C47B226 (antibody, V domains shown)
VH: B1 VH with S32Y
VL: B1 VL with K31N, A32R, Y49H, G50W, N53T, T56I, K92A, G93S
notes: human IgG2sigma/kappa; also called C27B226
B7: C47B242 (antibody, V domains shown)
VH: B1 VH with D30T
VL: B1 VL with N30S, K31N, A32R, K92R, G93S
notes: human IgG2sigma/kappa
B8: C47B228 (antibody, V domains shown)
VH: B1 VH with S32Y
VL: B1 VL with N30S, K31N, A32R, L33Q, Y49H, G50S, K92R, G93S
notes: human IgG2sigma/kappa
B9: C47B221 (antibody, V domains shown)
VH: B1 VH with D30T, S32Y
VL: B1 VL
notes: human IgG2sigma/kappa
B10: C47B224 (antibody, V domains shown)
VH: B1 VH with D30T, S32Y
VL: B1 VL with N30S, K31N, A32R, L33Q, Y49H, G50S, K92R, G93S
notes: human IgG2sigma/kappa
B11: C47B219 (antibody, V domains shown)
VH: B1 VH with D30T
VL: B1 VL with N30G, K31S, A32R, G50W, N53T, K92A, G93Y
notes: human IgG2sigma/kappa
B12: C47B230 (antibody, V domains shown)
VH: B1 VH with D30T, S32D
VL: B1 VL
notes: human IgG2sigma/kappa
B13: C47B223 (antibody, V domains shown)
VH: B1 VH with D30T, S32Y
VL: B1 VL with N30G, K31S, A32R, G50W, N53T, K92A, G93Y
notes: human IgG2sigma/kappa
B14: C47B229 (antibody, V domains shown)
VH: B1 VH with S32A
VL: B1 VL
notes: human IgG2sigma/kappa
B15: C47B240 (antibody, V domains shown)
VH: B1 VH with D30T, D31S, S32Y, V93M
VL: B1 VL with N30S, K31N, A32R, L33Q, Y49H, G50S, K92R, G93S
notes: human IgG2sigma/kappa
B16: C47B235 (antibody, V domains shown)
VH: B1 VH with S32Y, G35S
VL: B1 VL
notes: human IgG2sigma/kappa
B17: C47B241 (antibody, V domains shown)
VH: B1 VH
VL: B1 VL with N30S, K31N, A32R, K92R, G93S
notes: human IgG2sigma/kappa
B18: C47B236 (antibody, V domains shown)
VH: B1 VH with D30K, S32D
VL: B1 VL
notes: human IgG2sigma/kappa
B19: C47B217 (antibody, V domains shown)
VH: B1 VH with D30T
VL: B1 VL
notes: human IgG2sigma/kappa
B20: C47B227 (antibody, V domains shown)
VH: B1 VH with S32Y
VL: B1 VL with N30G, K31S, A32R, G50W, N53T, K92A, G93Y
notes: human IgG2sigma/kappa
B21: C47B222 (human IgG2sigma) (antibody, V domains shown)
VH: B1 VH with D30T, S32Y
VL: B1 VL with K31N, A32R, Y49H, G50W, N53T, T56I, K92A, G93S
notes: human IgG2sigma/kappa; also called IgG2 Fc-silent C47B222
B22: C47B244 (antibody, V domains shown)
VH: B1 VH with S32Y
VL: B1 VL with N30S, K31N, A32R, K92R, G93S
notes: human IgG2sigma/kappa
B23: C47B216 (antibody, V domains shown)
VH: B1 VH
VL: B1 VL with N30S, K31N, A32R, L33Q, Y49H, G50S, K92R, G93S
notes: human IgG2sigma/kappa
B24: C47B238 (antibody, V domains shown)
VH: B1 VH with D30T, D31S, S32Y, V93M
VL: B1 VL with N30G, K31S, A32R, G50W, N53T, K92A, G93Y
notes: human IgG2sigma/kappa
B25: C47B220 (antibody, V domains shown)
VH: B1 VH with D30T
VL: B1 VL with N30S, K31N, A32R, L33Q, Y49H, G50S, K92R, G93S
notes: human IgG2sigma/kappa
B26: C47B231 (antibody, V domains shown)
VH: B1 VH with D30T, D31N, S32Y
VL: B1 VL
notes: human IgG2sigma/kappa
B27: C47B214 (antibody, V domains shown)
VH: B1 VH
VL: B1 VL with K31N, A32R, Y49H, G50W, N53T, T56I, K92A, G93S
notes: human IgG2sigma/kappa
B28: C47B218 (antibody, V domains shown)
VH: B1 VH with D30T
VL: B1 VL with K31N, A32R, Y49H, G50W, N53T, T56I, K92A, G93S
notes: human IgG2sigma/kappa
B29: C47B239 (antibody, V domains shown)
VH: B1 VH with D30T, D31S, S32Y, V93M
VL: B1 VL with N30S, K31N, A32R, K92R, G93S
notes: human IgG2sigma/kappa
B30: C47B225 (antibody, V domains shown)
VH: B1 VH with S32Y
VL: B1 VL
notes: human IgG2sigma/kappa
B31: C47B234 (antibody, V domains shown)
VH: B1 VH with D31N, S32Y
VL: B1 VL
notes: human IgG2sigma/kappa
B32: C47B215 (antibody, V domains shown)
VH: B1 VH
VL: B1 VL with N30G, K31S, A32R, G50W, N53T, K92A, G93Y
notes: human IgG2sigma/kappa

What follows are binders tested against T1, recombinant human CD47 extracellular domain (ECD), His-tagged, dimer (human, UniProt Q08722 19-141) (assay: MSD; CD47-ECD dimer binding to captured SIRP alpha-Fc, mAb 10 µg/ml).
T1 construct: Dimeric fraction of the same His-tagged ECD; also called His-tagged CD47-ECD dimer protein

| % SIRP alpha Inhibition [%] | Binder |
| --- | --- |
| 71.6 | B1 |
| 98.4 | B2 |
| 97.9 | B3 |
| 99.6 | B4 |
| 99.8 | B5 |
| 100 | B6 |
| 99.1 | B7 |
| 99.3 | B8 |
| 95 | B9 |
| 99.7 | B10 |
| 99.4 | B11 |
| 28.4 | B12 |
| 100 | B13 |
| 16.1 | B14 |
| 93 | B15 |
| 99.9 | B16 |

| % SIRP alpha Inhibition [%] | Binder |
| --- | --- |
| 99.8 | B17 |
| 9.8 | B18 |
| 83.1 | B19 |
| 100 | B20 |
| 99.9 | B21 |
| 99.8 | B22 |
| 99.8 | B23 |
| 99.1 | B24 |
| 98.6 | B25 |
| 83.7 | B26 |
| 99.7 | B27 |
| 98.9 | B28 |
| 96.7 | B29 |
| 96.3 | B30 |
| 86.6 | B31 |
| 99.6 | B32 |

What follows are binders tested against T2, Cyno CD47 ECD protein, His-tagged, monomer (cyno) (assay: ProteOn SPR; cyno KD / human KD).
T2 construct: extracellular domain; also called cynomolgus CD47

| KD Ratio Cyno/Human | Binder |
| --- | --- |
| 1.8 | B1 |
| 0.8 | B2 |
| 1.4 | B3 |
| 0.9 | B4 |
| 1 | B5 |
| 0.6 | B6 |
| 1 | B7 |
| 0.9 | B8 |
| 0.9 | B9 |
| 0.9 | B10 |
| 0.6 | B11 |
| 3.7 | B12 |
| 0.7 | B13 |
| 3.9 | B14 |
| 1.1 | B15 |
| 1.3 | B16 |

| KD Ratio Cyno/Human | Binder |
| --- | --- |
| 0.8 | B17 |
| 5 | B18 |
| 0.7 | B19 |
| 0.6 | B20 |
| 0.8 | B21 |
| 0.7 | B22 |
| 0.8 | B23 |
| 1.1 | B24 |
| 0.9 | B25 |
| 1.1 | B26 |
| 0.6 | B27 |
| 0.6 | B28 |
| 1.4 | B29 |
| 1.1 | B30 |
| 1.8 | B31 |
| 0.7 | B32 |

The binders below were run against T2, Cyno CD47 ECD protein, His-tagged, … (assay: ProteOn SPR; mAb captured, ECD monomer as analyte).

| Kd [nM] | Binder |
| --- | --- |
| 4.25 | B1 |
| 3.02 | B2 |
| 3.51 | B3 |
| 2.42 | B4 |
| 2.08 | B5 |
| 0.543 | B6 |
| 3.46 | B7 |
| 2.53 | B8 |
| 4.5 | B9 |
| 2.19 | B10 |
| 1.66 | B11 |
| 7.28 | B12 |
| 0.807 | B13 |
| 8.32 | B14 |
| 9.23 | B15 |
| 3.06 | B16 |

| Kd [nM] | Binder |
| --- | --- |
| 2.03 | B17 |
| 14.6 | B18 |
| 5.56 | B19 |
| 0.574 | B20 |
| 0.842 | B21 |
| 1.55 | B22 |
| 2.74 | B23 |
| 3.73 | B24 |
| 3.74 | B25 |
| 12.3 | B26 |
| 1.4 | B27 |
| 1.58 | B28 |
| 9.7 | B29 |
| 3.76 | B30 |
| 7.93 | B31 |
| 1.44 | B32 |

The binders below were run against T3, recombinant human CD47 extracellular domain (ECD), His-tagged, monomer (human, UniProt Q08722 19-141) (assay: ProteOn SPR; mAb captured, ECD monomer as analyte).
T3 construct: C-terminal 6xHis tag; monomeric fraction from Superdex 200; also called human CD47 ECD; CD47-ECD monomer

| Kd [nM] | Binder |
| --- | --- |
| 2.33 | B1 |
| 3.9 | B2 |
| 2.57 | B3 |
| 2.8 | B4 |
| 2.02 | B5 |
| 0.872 | B6 |
| 3.47 | B7 |
| 2.69 | B8 |
| 5.21 | B9 |
| 2.46 | B10 |
| 2.58 | B11 |
| 1.99 | B12 |
| 1.14 | B13 |
| 2.15 | B14 |
| 8.59 | B15 |
| 2.35 | B16 |

| Kd [nM] | Binder |
| --- | --- |
| 2.62 | B17 |
| 2.92 | B18 |
| 7.67 | B19 |
| 0.902 | B20 |
| 1.12 | B21 |
| 2.12 | B22 |
| 3.35 | B23 |
| 3.53 | B24 |
| 4.3 | B25 |
| 11.3 | B26 |
| 2.3 | B27 |
| 2.56 | B28 |
| 6.69 | B29 |
| 3.31 | B30 |
| 4.49 | B31 |
| 2.05 | B32 |
